Patent US20060275780, “Cross-linking reagents and uses thereof” (Beckman Coulter, Inc., published 2006)

B1: bFGF photoaptamer (ssDNA)
DNA: GCGAAGGCACACCGAGTTCATAGTATCCCA
modifications: BrdU at the five n positions (17, 18, 22, 25, 27), replacing T [n positions 17,18,21,24,26 = modified dU]

Assays:
[1] = molecular target: T1, FGFb (fibroblast growth factor-basic, bFGF, FGF2) (UniProt P09038 P09038:143-288); experiment: Ru(bpy)3 2+/APS visible-light cross-linking; urea gel and printed aptamer array with anti-FGF ELF detection; complex stable to 1N NaOH 1% SDS when cross-linked
T1 sequence (P09038 143-288, one chain of several): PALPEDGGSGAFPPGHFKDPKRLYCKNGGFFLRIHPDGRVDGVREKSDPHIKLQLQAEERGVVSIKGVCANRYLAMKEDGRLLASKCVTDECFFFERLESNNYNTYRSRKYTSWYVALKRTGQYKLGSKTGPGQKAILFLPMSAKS
Description: bFGF photoaptamer (GCG AAG GCA CAC CGA GXX CAX AGX AXC CCA, where X=BrdU; SEQ ID NO:1) was mixed with FGFb ligand overnight to achieve maximal aptamer-ligand binding. White light-mediated photolysis of tris-bipyridylruthenium (II) complex was employed to cross-link the aptamer to the ligand in the presence of APS. The solution was then boiled in the presence of urea-SDS to dissociate bound but uncross-linked ligand from the aptamer. The mixture was subsequently applied to a urea slab gel to separate free aptamer from the cross-linked aptamer-ligand complex by electrophoresis. SYBR Gold staining was used to determine the presence of the aptamer, while double-staining with silver stain was used to determine the presence of the ligand. Referring to FIG. 1, the test sample consisted of bFGF photoaptamer and fibroblast growth factor-basic (FGFb) ligand; the control sample consisted of only bFGF photoaptamer. The test and control samples were incubated overnight prior to PICUP (photo-induced cross-linking of unmodified proteins)-like cross-linking. The samples (12 ul/each) were run on a 6% TBE-urea gel. […] Both the test and control samples were subject to denaturing conditions (100° C. for 5 minutes in TBE-urea sample buffer) prior to electrophoresis.
In FIG. 2, FGFb ligand was applied to an array of aptamers and incubated for 48 hours to achieve maximal binding. […]

[2] = molecular target: T1, FGFb (fibroblast growth factor-basic, …); experiment: printed aptamer array; stated to bind as tightly as the BrdU aptamer; cross-linking avidity lower (curve shifted right) after 1N NaOH 1% SDS
Method: FGFb bindings by bFGF photoaptamer and bFGF native aptamer (GCGAAGGCACACCGAGTTCATAGTATCCCA; SEQ ID NO:2) were compared. Referring to FIG. 3, * denotes PICUP-like cross-linking (the left two columns), while the remaining wells represent non-covalent ligand capture (the right two columns). Samples in plates 1* and 7 were treated with 1N NaOH, 1% SDS to remove the non-covalently bound ligand.
This hypothesis was tested by titrating increasing concentrations of FGFb against the two aptamers and plotting binding curves. Referring to FIG. 4, in the left panel, the two left hand side columns of each array were printed with bFGF photoaptamer, while the two right hand side columns were printed with bFGF native aptamer. The eighteen arrays in the left panel were cross-linked using a PICUP-like protocol, whereas the six arrays in the right panel represent non-covalent binding. All wells were treated with 1N NaOH, 1% SDS to strip the non-covalently bound ligand. The displacement of the bFGF native aptamer binding curve (diamonds) to the right of the bFGF photoaptamer curve (squares) confirmed that the cross-linking avidity of the bFGF native aptamer is lower than its BrdU-modified bFGF photoaptamer analog (FIG. 5).

Binder | binding result [1] | binding result [2]
B1 | binds | –
GCGAAGGCACACCGAGTTCATAGTATCCCA (ssDNA) [bFGF native aptamer] | – | binds
